# Legend:
# HeLa Kyoto [1] = test: melting temperature (median over replicates), in situ; higher = more thermally stable
# HeLa Kyoto [2] = test: solubility in G1/S (NP-40 vs SDS abundance) (log2 ratio); higher = more soluble; details: cell cycle stage: G1/S
# HeLa Kyoto [3] = test: solubility change mitosis vs G1/S (difference of NP-40 vs SDS log2 ratios) (log2 ratio difference); higher = more soluble in mitosis
# HeLa Kyoto [4] = test: thermal stability score vs G1/S (z-score of summed log2 fold changes over temperatures); higher = more thermally stable than in G1/S
# [5] = cell cycle stage: early G1 (4.5 h after nocodazole release)
# 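Throughout, for melting temperature (median over replicates), in situ: HeLa Kyoto cells synchronized by double thymidine or nocodazole block, proteins quantified by TMT10plex mass spectrometry, three independent biological replicates.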
# 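Throughout, for solubility change mitosis vs G1/S (difference of NP-40 vs SDS log2 ratios): synchronized HeLa Kyoto cells (double thymidine block for G1/S, nocodazole release for mitosis), protein amounts in NP-40 versus SDS lysates quantified by mass spectrometry, three biological replicates.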
# 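Throughout, for solubility in G1/S (NP-40 vs SDS abundance): HeLa Kyoto cells arrested at G1/S by double thymidine block, proteins quantified by TMT10plex mass spectrometry in mild NP-40 versus SDS extracts, three biological replicates.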
# 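Throughout, for thermal stability score vs G1/S (z-score of summed log2 fold changes over temperatures): synchronized HeLa Kyoto cells, proteins quantified by TMT10plex mass spectrometry, three biological replicates, mitosis taken 0.5 h after nocodazole release, G1/S directly after double thymidine block.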
Substance,melting temperature (HeLa Kyoto [1]; cell cycle stage: G1/S) [°C],melting temperature (HeLa Kyoto [1]; cell cycle stage: mitosis) [°C],solubility in G1/S (log2) (HeLa Kyoto [2]),solubility change mitosis (log2) (HeLa Kyoto [3]),thermal stability score (HeLa Kyoto [4]; [5]),thermal stability score (HeLa Kyoto [4]; cell cycle stage: mitosis)
MAGGPPKALPSTGPHSLRDMPHPLAGSSSEEAVGGDSTPSPDLLMARSFGDKDLILPNGGTPAGTSSPASSSSLLNRLQLDDDIDGETRDLFVIVDDPKKHVCTMETYITYRITTKSTRVEFDLPEYSVRRRYQDFDWLRSKLEESQPTHLIPPLPEKFVVKGVVDRFSEEFVETRRKALDKFLKRITDHPVLSFNEHFNIFLTAKDLNAYKKQGIALLTRMGESVKHVTGGYKLRTRPLEFAAIGDYLDTFALKLGTIDRIAQRIIKEEIEYLVELREYGPVYSTWSALEGELAEPLEGVSACIGNCSTALEELTDDMTEDFLPVLREYILYSDSMKSVLKKRDQVQAEYEAKLEAVALRKEDRPKVPADVEKCQDRMECFNADLKADMERWQNNKRQDFRQLLMGMADKNIQYYEKCLMAWESIIPLLQEKQEAK [SNX30],50.1,50.7,0.262,-0.31,0.333,1.76
MELKVWVDGVQRIVCGVTEVTTCQEVVIALAQAIGRTGRYTLIEKWRDTERHLAPHENPIISLNKWGQYASDVQLILRRTGPSLSERPTSDSVARIPERTLYRQSLPPLAKLRPQIDKSIKRREPKRKSLTFTGGAKGLMDIFGKGKETEFKQKVLNNCKTTADELKKLIRLQTEKLQSIEKQLESNEIEIRFWEQKYNSNLEEEIVRLEQKIKRNDVEIEEEEFWENELQIEQENEKQLKDQLQEIRQKITECENKLKDYLAQIRTMESGLEAEKLQREVQEAQVNEEEVKGKIGKVKGEIDIQGQQSLRLENGIKAVERSLGQATKRLQDKEQELEQLTKELRQVNLQQFIQQTGTKVTVLPAEPIEIEASHADIEREAPFQSGSLKRPGSSRQLPSNLRILQNPISSGFNPEGIYV [RASSF8],,,0.445,0.00342,0.245,-0.268
MAARAVLDEFTAPAEKAELLEQSRGRIEGLFGVSLAVLGALGAEEPLPARIWLQLCGAQEAVHSAKEYIKGICEPELEERECYPKDMHCIFVGAESLFLKSLIQDTCADLCILDIGLLGIRGSAEAVVMARSHIQQFVKLFENKENLPSSQKESEVKREFKQFVEAHADNYTMDLLILPTSLKKELLTLTQGEENLFETGDDEVIEMRDSQQTEFTQNAATGLNISRDETVLQEEARNKAGTPVSELTKQMDTVLSSSPDVLFDPINGLTPDEEALSNERICQKRRFSDSEERHTKKQFSLENVQEGEILHDAKTLAGNVIADLSDSSADSENLSPDIKETTEEMEYNILVNFFKTMGYSQEIVEKVIKVYGPSTEPLLLLEEIEKENKRFQEDREFSAGTVYPETNKTKNKGVYSSTNELTTDSTPKKTQAHTQQNMVEKFSQLPFKVEAKPCTSNCRINTFRTVPIEQKHEVWGSNQNYICNTDPETDGLSPSVASPSPKEVNFVSRGASSHQPRVPLFPENGLHQQPEPLLPNNMKSACEKRLGCCSSPHSKPNCSTLSPPMPLPQLLPSVTDARSAGPSDHIDSSVTGVQRFRDTLKIPYKLELKNEPGRTDLKHIVIDGSNVAITHGLKKFFSCRGIAIAVEYFWKLGNRNITVFVPQWRTRRDPNVTEQHFLTQLQELGILSLTPARMVFGERIASHDDRFLLHLADKTGGIIVTNDNFREFVNESVSWREIITKRLLQYTFVGDIFMVPDDPLGRSGPRLEEFLQKEVCLRDMQPLLSALPNVGMFDPSFRVPGTQAASTSHQPPTRIQGAPSSHWLPQQPHFPLLPALPSLQQNLPMPAQRSSAETNELREALLKIFPDSEQRLKIDQILVAHPYMKDLNALSAMVLD [N4BP1],,,0.0767,-0.0226,1.68,2.82
MWHEARKHERKLRGMMVDYKKRAERRREYYEKIKKDPAQFLQVHGRACKVHLDSAVALAAESPVNMMPWQGDTNNMIDRFDVRAHLDHIPDYTPPLLTTISPEQESDERKCNYERYRGLVQNDFAGISEEQCLYQIYIDELYGGLQRPSEDEKKKLAEKKASIGYTYEDSTVAEVEKAAEKPEEEESAAEEESNSDEDEVIPDIDVEVDVDELNQEQVADLNKQATTYGMADGDFVRMLRKDKEEAEAIKHAKALEEEKAMYSGRRSRRQRREFREKRLRGRKISPPSYARRDSPTYDPYKRSPSESSSESRSRSRSPTPGREEKITFITSFGGSDEEAAAAAAAAAASGVTTGKPPAPPQPGGPAPGRNASARRRSSSSSSSSSASRTSSSRSSSRSSSRSRRGGGYYRSGRHARSRSRSWSRSRSRSRRYSRSRSRGRRHSGGGSRDGHRYSRSPARRGGYGPRRRSRSRSHSGDRYRRGGRGLRHHSSSRSRSSWSLSPSRSRSLTRSRSHSPSPSQSRSRSRSRSQSPSPSPAREKLTRPAASPAVGEKLKKTEPAAGKETGAAKPKLTPQEKLKLRMQKALNRQFKADKKAAQEKMIQQEHERQEREDELRAMARKIRMKERERREKEREEWERQYSRQSRSPSPRYSREYSSSRRRSRSRSRSPHYRH [CLASRP],,,-0.572,0.526,0.728,0.776
MARPGMERWRDRLALVTGASGGIGAAVARALVQQGLKVVGCARTVGNIEELAAECKSAGYPGTLIPYRCDLSNEEDILSMFSAIRSQHSGVDICINNAGLARPDTLLSGSTSGWKDMFNVNVLALSICTREAYQSMKERNVDDGHIININSMSGHRVLPLSVTHFYSATKYAVTALTEGLRQELREAQTHIRATCISPGVVETQFAFKLHDKDPEKAAATYEQMKCLKPEDVAEAVIYVLSTPAHIQIGDIQMRPTEQVT [DHRS11],,,0.514,-0.00389,-0.426,-1.39
MAEDWLDCPALGPGWKRREVFRKSGATCGRSDTYYQSPTGDRIRSKVELTRYLGPACDLTLFDFKQGILCYPAPKAHPVAVASKKRKKPSRPAKTRKRQVGPQSGEVRKEAPRDETKADTDTAPASFPAPGCCENCGISFSGDGTQRQRLKTLCKDCRAQRIAFNREQRMFKRVGCGECAACQVTEDCGACSTCLLQLPHDVASGLFCKCERRRCLRIVERSRGCGVCRGCQTQEDCGHCPICLRPPRPGLRRQWKCVQRRCLRGKHARRKGGCDSKMAARRRPGAQPLPPPPPSQSPEPTEPHPRALAPSPPAEFIYYCVDEDELQPYTNRRQNRKCGACAACLRRMDCGRCDFCCDKPKFGGSNQKRQKCRWRQCLQFAMKRLLPSVWSESEDGAGSPPPYRRRKRPSSARRHHLGPTLKPTLATRTAQPDHTQAPTKQEAGGGFVLPPPGTDLVFLREGASSPVQVPGPVAASTEALLQEAQCSGLSWVVALPQVKQEKADTQDEWTPGTAVLTSPVLVPGCPSKAVDPGLPSVKQEPPDPEEDKEENKDDSASKLAPEEEAGGAGTPVITEIFSLGGTRFRDTAVWLPRSKDLKKPGARKQ [MBD1],,,-0.475,0.37,-0.407,-0.0664
MGGGDLNLKKSWHPQTLRNVEKVWKAEQKHEAERKKIEELQRELREERAREEMQRYAEDVGAVKKKEEKLDWMYQGPGGMVNRDEYLLGRPIDKYVFEKMEEKEAGCSSETGLLPGSIFAPSGANSLLDMASKIREDPLFIIRKKEEEKKREVLNNPVKMKKIKELLQMSLEKKEKKKKKEKKKKHKKHKHRSSSSDRSSSEDEHSAGRSQKKMANSSPVLSKVPGYGLQVRNSDRNQGLQGPLTAEQKRGHGMKNHSRSRSSSHSPPRHASKKSTREAGSRDRRSRSLGRRSRSPRPSKLHNSKVNRRETGQTRSPSPKKEVYQRRHAPGYTRKLSAEELERKRQEMMENAKWREEERLNILKRHAKDEEREQRLEKLDSRDGKFIHRMKLESASTSSLEDRVKRNIYSLQRTSVALEKNFMKR [CWC25],,,-0.718,0.463,-0.522,-0.488
MLQNPQEKSQAYPRRRRPGCYAYRQNPEAIAAAAMYTFLPDNFSPAKPKPSKDLKPLLGSAVLGLLLVLAAVVAWCYYSVSLRKAERLRAELLDLKAGGFSIRNQKGEQVFRLAFRSGALDLDSCSRDGALLGCSLTADGLPLHFFIQTVRPKDTVMCYRVRWEEAAPGRAVEHAMFLGDAAAHWYGGAEMRTQHWPIRLDGQQEPQPFVTSDVYSSDAAFGGILERYWLSSRAAAIKVNDSVPFHLGWNSTERSLRLQARYHDTPYKPPAGRAAAPELSYRVCVGSDVTSIHKYMVRRYFNKPSRVPAPEAFRDPIWSTWALYGRAVDQDKVLRFAQQIRLHHFNSSHLEIDDMYTPAYGDFDFDEVKFPNASDMFRRLRDAGFRVTLWVHPFVNYNSSRFGEGVERELFVREPTGRLPALVRWWNGIGAVLDFTHPKARDWFQGHLRRLRSRYSVASFKFDAGEVSYLPRDFSTYRPLPDPSVWSRRYTEMALPFFSLAEVRVGYQSQNISCFFRLVDRDSVWGYDLGLRSLIPAVLTVSMLGYPFILPDMVGGNAVPQRTAGGDVPERELYIRWLEVAAFMPAMQFSIPPWRYDAEVVAIAQKFAALRASLVAPLLLELAGEVTDTGDPIVRPLWWIAPGDETAHRIDSQFLIGDTLLVAPVLEPGKQERDVYLPAGKWRSYKGELFDKTPVLLTDYPVDLDEIAYFTWAS [KIAA1161],,,0.099,-0.254,-4.62,-3.21
MED13,,,-0.213,-0.112,-0.573,-0.435
MKVVPEKNAVRILWGRERGARAMGAQRLLQELVEDKTRWMKWEGKRVELPDSPRSTFLLAFSPDRTLLASTHVNHNIYITEVKTGKCVHSLIGHRRTPWCVTFHPTISGLIASGCLDGEVRIWDLHGGSESWFTDSNNAIASLAFHPTAQLLLIATANEIHFWDWSRREPFAVVKTASEMERVRLVRFDPLGHYLLTAIVNPSNQQGDDEPEIPIDGTELSHYRQRALLQSQPVRRTPLLHNFLHMLSSRSSGIQVGEQSTVQDSATPSPPPPPPQPSTERPRTSAYIRLRQRVSYPTAECCQHLGILCLCSRCSGTRVPSLLPHQDSVPPASARATTPSFSFVQTEPFHPPEQASSTQQDQGLLNRPSAFSTVQSSTAGNTLRNLSLGPTRRSLGGPLSSHPSRYHREIAPGLTGSEWTRTVLSLNSRSEAESMPPPRTSASSVSLLSVLRQQEGGSQASVYTSATEGRGFPASGLATESDGGNGSSQNNSGSIRHELQCDLRRFFLEYDRLQELDQSLSGEAPQTQQAQEMLNNNIESERPGPSHQPTPHSSENNSNLSRGHLNRCRACHNLLTFNNDTLRWERTTPNYSSGEASSSWQVPSSFESVPSSGSQLPPLERTEGQTPSSSRLELSSSASPQEERTVGVAFNQETGHWERIYTQSSRSGTVSQEALHQDMPEESSEEDSLRRRLLESSLISLSRYDGAGSREHPIYPDPARLSPAAYYAQRMIQYLSRRDSIRQRSMRYQQNRLRSSTSSSSSDNQGPSVEGTDLEFEDFEDNGDRSRHRAPRNARMSAPSLGRFVPRRFLLPEYLPYAGIFHERGQPGLATHSSVNRVLAGAVIGDGQSAVASNIANTTYRLQWWDFTKFDLPEISNASVNVLVQNCKIYNDASCDISADGQLLAAFIPSSQRGFPDEGILAVYSLAPHNLGEMLYTKRFGPNAISVSLSPMGRYVMVGLASRRILLHPSTEHMVAQVFRLQQAHGGETSMRRVFNVLYPMPADQRRHVSINSARWLPEPGLGLAYGTNKGDLVICRPEALNSGVEYYWDQLNETVFTVHSNSRSSERPGTSRATWRTDRDMGLMNAIGLQPRNPATSVTSQGTQTLALQLQNAETQTEREVPEPGTAASGPGEGEGSEYGASGEDALSRIQRLMAEGGMTAVVQREQSTTMASMGGFGNNIIVSHRIHRSSQTGTEPGAAHTSSPQPSTSRGLLPEAGQLAERGLSPRTASWDQPGTPGREPTQPTLPSSSPVPIPVSLPSAEGPTLHCELTNNNHLLDGGSSRGDAAGPRGEPRNR [AMBRA1],,,0.0307,-0.123,0.941,1.96
